Where only a bound is given, the exact number is not on record here.

Test [1] addresses TLR4, CD14 and MD2 on TCM^Hi HEK 293 cells (TLR4^Hi, CD14^Hi, MD2^Hi; InvivoGen) (UniProt O00206). Description: flow cytometry; HEK 293 cells incubated with 100 ug/mL BODIPY-RWPE for 30 minutes on ice, then washed. A general note: A flow cytometer gives signals particle by particle.
Test [2] has as its target TLR4 on TLR4^Hi HEK 293 cells (TLR4^Hi, CD14^Null, MD2^Null; InvivoGen) (UniProt O00206). The description is as above.

Chain of TLR4 on TLR4^Hi HEK 293 cells (TLR4^Hi, CD14^Null, MD2^Null; InvivoGen) (O00206 24-839 limits assumed): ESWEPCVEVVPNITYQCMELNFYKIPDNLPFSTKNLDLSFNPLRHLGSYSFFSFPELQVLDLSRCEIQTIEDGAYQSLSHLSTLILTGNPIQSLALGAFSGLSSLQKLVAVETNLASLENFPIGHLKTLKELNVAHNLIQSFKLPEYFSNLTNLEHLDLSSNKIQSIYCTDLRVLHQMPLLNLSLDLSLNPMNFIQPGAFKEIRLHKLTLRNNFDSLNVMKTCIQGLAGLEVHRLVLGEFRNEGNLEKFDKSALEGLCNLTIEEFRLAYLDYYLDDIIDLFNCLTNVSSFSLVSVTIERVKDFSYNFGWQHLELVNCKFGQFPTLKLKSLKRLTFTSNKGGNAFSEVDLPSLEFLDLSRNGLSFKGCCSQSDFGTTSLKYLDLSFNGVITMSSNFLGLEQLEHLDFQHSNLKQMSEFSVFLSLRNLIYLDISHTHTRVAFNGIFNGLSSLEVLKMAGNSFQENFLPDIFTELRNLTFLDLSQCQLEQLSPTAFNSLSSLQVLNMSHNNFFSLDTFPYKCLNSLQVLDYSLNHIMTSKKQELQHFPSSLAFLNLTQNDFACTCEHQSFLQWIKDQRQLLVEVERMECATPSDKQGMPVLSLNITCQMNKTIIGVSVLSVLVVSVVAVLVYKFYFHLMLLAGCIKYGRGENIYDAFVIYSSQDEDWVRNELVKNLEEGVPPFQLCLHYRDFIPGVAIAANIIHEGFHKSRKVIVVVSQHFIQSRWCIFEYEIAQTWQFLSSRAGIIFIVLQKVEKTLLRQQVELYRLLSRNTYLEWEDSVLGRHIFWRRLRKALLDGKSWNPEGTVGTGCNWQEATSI
Chain of TLR4, CD14 and MD2 on TCM^Hi HEK 293 cells (TLR4^Hi, CD14^Hi, MD2^Hi; InvivoGen) (O00206 24-839 limits assumed, chain 1 of 3): as the sequence (O00206 24-839 limits assumed) above
Chain of TLR4, CD14 and MD2 on TCM^Hi HEK 293 cells (TLR4^Hi, CD14^Hi, MD2^Hi; InvivoGen) (P08571 20-345 limits assumed, chain 2 of 3, further chain): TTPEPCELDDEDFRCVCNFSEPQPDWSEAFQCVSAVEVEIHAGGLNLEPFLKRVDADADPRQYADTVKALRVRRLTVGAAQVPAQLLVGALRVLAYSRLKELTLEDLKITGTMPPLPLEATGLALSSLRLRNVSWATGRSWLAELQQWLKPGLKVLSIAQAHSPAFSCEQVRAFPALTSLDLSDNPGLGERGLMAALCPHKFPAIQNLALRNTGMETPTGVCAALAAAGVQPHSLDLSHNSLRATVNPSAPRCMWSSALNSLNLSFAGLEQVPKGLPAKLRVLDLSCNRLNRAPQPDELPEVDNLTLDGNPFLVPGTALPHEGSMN
Chain of TLR4, CD14 and MD2 on TCM^Hi HEK 293 cells (TLR4^Hi, CD14^Hi, MD2^Hi; InvivoGen) (Q9Y6Y9 19-160 limits assumed, chain 3 of 3, further chain): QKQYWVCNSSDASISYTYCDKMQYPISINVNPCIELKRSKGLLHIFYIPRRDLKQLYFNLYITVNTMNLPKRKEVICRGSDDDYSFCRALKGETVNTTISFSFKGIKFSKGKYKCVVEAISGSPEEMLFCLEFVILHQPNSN

Take “BODIPY-labeled ragweed pollen extract (RWPE)”: the BODIPY-RWPE staining (% by FACS) in test [1] is 12.9%; in test [2], less than 3%.

Values taken from US20160311911A1, “METHODS FOR TREATING ALLERGIC AIRWAY INFLAMMATION” (priority 2015, published 2016).
